From patent publication US20260126425A1

Tests used:
[1] = target: SARS-CoV-2 Spike protein (Spike trimer) (SARS-CoV-2) (UniProt P0DTC2)
[2] = target: SARS-CoV-2 Spike protein (Spike trimer) (SARS-CoV-2) (UniProt P0DTC2); remark: listed apart in the source
[3] = target: SARS-CoV-2 Spike protein (Spike trimer) (SARS-CoV-2) (UniProt P0DTC2); remark: listed apart in the source

Ty1-modified ClyA nanopore (ClyA-f-Ty1)
EC50 (read off the curve) [1]: 0.6 nM
Kd [2]: 0.761 nM
constant fit of Log10(tin (ms)) against Spike protein concentration (pM) [3]: 1.48 Log10(ms)
